Test results published in article PMC3192265 (Molecular microbiology, 2011).

Target: T1, B. subtilis DnaA (no tag) (B. subtilis, UniProt P05648 1-446)
T1 sequence (looked up): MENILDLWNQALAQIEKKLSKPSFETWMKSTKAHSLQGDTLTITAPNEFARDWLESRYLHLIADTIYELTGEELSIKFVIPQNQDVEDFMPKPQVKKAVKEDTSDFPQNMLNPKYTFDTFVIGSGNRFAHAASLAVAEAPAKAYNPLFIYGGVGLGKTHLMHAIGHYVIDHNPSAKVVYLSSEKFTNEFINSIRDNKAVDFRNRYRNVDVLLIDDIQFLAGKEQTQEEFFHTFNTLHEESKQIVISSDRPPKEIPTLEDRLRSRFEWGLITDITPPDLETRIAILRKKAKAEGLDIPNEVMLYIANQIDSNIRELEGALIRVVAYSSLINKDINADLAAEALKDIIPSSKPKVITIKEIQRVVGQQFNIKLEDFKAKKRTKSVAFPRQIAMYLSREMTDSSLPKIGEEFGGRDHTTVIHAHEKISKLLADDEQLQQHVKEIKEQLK
Assay: native gel or EMSA

binding result: binds
B1: his-YabA (recombinant YabA with a hexa-histidine tag at its N-terminus) (natural protein)
chain: not shown
